Earlier results, collected in article PMC10280637.

Biological target: IL-17A (Homo sapiens) (UniProt Q16552)
Sequence (Q16552 24-155): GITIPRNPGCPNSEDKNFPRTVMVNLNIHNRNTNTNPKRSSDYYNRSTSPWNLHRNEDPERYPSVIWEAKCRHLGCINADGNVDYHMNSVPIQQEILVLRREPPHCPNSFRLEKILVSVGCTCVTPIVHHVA

Secukinumab
Kd: 60 pM
